In general, Kd refers to the free concentration of one partner at which half of the binding sites on the other are occupied at equilibrium, for simple one-to-one binding. A lower Kd goes with higher affinity. What is called koff is a measure of how fast the partners let go of each other. Low values mean slow dissociation, high ones fast dissociation. In general, kon refers to the second-order rate constant of association. Higher therefore signals faster complex formation.

Kd, koff and kon data for 13 molecules are collected here from paper PMC10663500, “High-throughput analysis system of interaction kinetics for data-driven antibody design” (Scientific Reports, 2023).

The target in assay [1] is T1, mouse programmed cell death protein 1 Fc fusion protein (mPD-1-Fc), mPD-1 C60S (aa 25-167) (Mus musculus, UniProt Q02242, stabilised).
T1 construct: not cleaved; source: Expi293F, purified (Protein A, SEC; dimeric fraction); not shown: Fc (human), C-terminal, kept
The assay is described as follows: SPR; Carterra LSA; Fab from the ammonium sulfate precipitate of the culture supernatant immobilised on a NiHC200M chip; hPD-1 (1-1024 nM) or mPD-1-Fc (4-1024 nM) as analyte, fourfold dilution series, no regeneration; HBS-EP pH 7.4, 25 °C; medians over the spots of a construct, KD = koff/kon. The conditions noted are these: one partner purified. The procedure, abridged: (§1)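 Fabs from Brevibacillus culture supernatants were ammonium sulfate-precipitated, redissolved in HBS-EP and captured in duplicate on a NiHC200M chip (Carterra LSA, 25 °C). Human PD-1 (1–1024 nM) or mouse PD-1-Fc (4–1024 nM) flowed as fourfold series without regeneration, with 10 min association and 5 min dissociation; unconfirmed binders were set to kon 10^3 […], koff 10^−2 s^−1. Rates came from kdka model fits (slow- or fast-dissociation settings, best fit); KD is koff/kon from per-construct medians.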
A general note: SPR reads the build-up and loss of mass on a sensor chip optically.

In assay [2] the target is T2, human programmed cell death protein 1 (hPD-1) C93S (aa 24-167) (Homo sapiens, UniProt Q15116, C93S).
T2 construct: made as a fusion with a TEV site and human Fc; the Fc was cut off with TEV protease; source: Expi293F, purified (Protein A, TEV cleavage of Fc, SEC; monomer fractions); not shown: Fc (human), C-terminal, cleaved
The assay is described as above. As to conditions: one partner purified. An outline of the steps:
as §1

Where only a bound is given, the exact number is not on record here.

T2 sequence (Q15116 24-167 C93S): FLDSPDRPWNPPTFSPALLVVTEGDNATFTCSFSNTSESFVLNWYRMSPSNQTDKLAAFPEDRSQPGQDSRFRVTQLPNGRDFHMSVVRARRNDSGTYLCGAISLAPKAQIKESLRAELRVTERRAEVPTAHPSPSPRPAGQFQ

B1: toripalimab Fab L.S25A (Fab, V domains shown)
VH: QGQLVQSGAEVKKPGASVKVSCKASGYTFTDYEMHWVRQAPIHGLEWIGVIESETGGTAYNQKFKGRVTITADKSTSTAYMELSSLRSEDTAVYYCAREGITTVATTYYWYFDVWGQGTTVTVSS
VL: DVVMTQSPLSLPVTLGQPASISCRASQSIVHSNGNTYLEWYLQKPGQSPQLLIYKVSNRFSGVPDRFSGSGSGTDFTLKISRVEAEDVGVYYCFQGSHVPLTFGQGTKLEIK
notes: as the heavy chain of Sm3; light chain of Sm3 with this change; numbers count from the chain's first residue; source: Brevibacillus, culture supernatant (ammonium sulfate precipitate); not shown: 6xHis, C-terminal, kept; 6xHN, C-terminal, kept
Consider B1, for which, in assay [1], the Kd came out at 65.2 nM, the koff amounted to 0.00369 s⁻¹ and the kon was 56600 M⁻¹ s⁻¹. In assay [2], this molecule gave a Kd of under 0.503 nM, a koff of under 1e-05 s⁻¹ and a kon of 19900 M⁻¹ s⁻¹.

B2: toripalimab Fab L.S28Y (Fab, V domains shown)
VH: QGQLVQSGAEVKKPGASVKVSCKASGYTFTDYEMHWVRQAPIHGLEWIGVIESETGGTAYNQKFKGRVTITADKSTSTAYMELSSLRSEDTAVYYCAREGITTVATTYYWYFDVWGQGTTVTVSS
VL: DVVMTQSPLSLPVTLGQPASISCRSSQYIVHSNGNTYLEWYLQKPGQSPQLLIYKVSNRFSGVPDRFSGSGSGTDFTLKISRVEAEDVGVYYCFQGSHVPLTFGQGTKLEIK
notes: as for B1
On to B2, for which, in assay [1], binding was put at a Kd of 137 nM, the koff worked out at 0.00438 s⁻¹ and the kon was 31900 M⁻¹ s⁻¹. Moreover, in assay [2], the equilibrium dissociation constant (Kd) is under 0.792 nM, the koff is under 1e-05 s⁻¹ and the kon worked out at 12600 M⁻¹ s⁻¹.

B3: toripalimab Fab L.I29A (Fab, V domains shown)
VH: QGQLVQSGAEVKKPGASVKVSCKASGYTFTDYEMHWVRQAPIHGLEWIGVIESETGGTAYNQKFKGRVTITADKSTSTAYMELSSLRSEDTAVYYCAREGITTVATTYYWYFDVWGQGTTVTVSS
VL: DVVMTQSPLSLPVTLGQPASISCRSSQSAVHSNGNTYLEWYLQKPGQSPQLLIYKVSNRFSGVPDRFSGSGSGTDFTLKISRVEAEDVGVYYCFQGSHVPLTFGQGTKLEIK
notes: as for B1
Turning to B3, in assay [1], the Kd is 64 nM, the koff is 0.00268 s⁻¹ and the kon was 41800 M⁻¹ s⁻¹. In assay [2], this molecule showed a Kd of under 0.466 nM, a koff of under 1e-05 s⁻¹ and a kon of 21500 M⁻¹ s⁻¹.

B4: toripalimab Fab H.M34Y (Fab, V domains shown)
VH: QGQLVQSGAEVKKPGASVKVSCKASGYTFTDYEYHWVRQAPIHGLEWIGVIESETGGTAYNQKFKGRVTITADKSTSTAYMELSSLRSEDTAVYYCAREGITTVATTYYWYFDVWGQGTTVTVSS
VL: DVVMTQSPLSLPVTLGQPASISCRSSQSIVHSNGNTYLEWYLQKPGQSPQLLIYKVSNRFSGVPDRFSGSGSGTDFTLKISRVEAEDVGVYYCFQGSHVPLTFGQGTKLEIK
notes: heavy chain of Sm3 with this change; numbers count from the chain's first residue; as the light chain of Sm3; source: Brevibacillus, culture supernatant (ammonium sulfate precipitate); not shown: 6xHis, C-terminal, kept; 6xHN, C-terminal, kept
In assay [1], B4 displayed a dissociation constant (Kd) of 164 nM, a koff of 0.00793 s⁻¹ and a kon of 48500 M⁻¹ s⁻¹. In assay [2], this molecule had a Kd of under 0.414 nM, a koff of under 1e-05 s⁻¹ and a kon of 24200 M⁻¹ s⁻¹.

B5: toripalimab Fab L.V30Y (Fab, V domains shown)
VH: QGQLVQSGAEVKKPGASVKVSCKASGYTFTDYEMHWVRQAPIHGLEWIGVIESETGGTAYNQKFKGRVTITADKSTSTAYMELSSLRSEDTAVYYCAREGITTVATTYYWYFDVWGQGTTVTVSS
VL: DVVMTQSPLSLPVTLGQPASISCRSSQSIYHSNGNTYLEWYLQKPGQSPQLLIYKVSNRFSGVPDRFSGSGSGTDFTLKISRVEAEDVGVYYCFQGSHVPLTFGQGTKLEIK
notes: as for B1
In assay [1], B5 showed a Kd of 173 nM, a koff of 0.00719 s⁻¹ and a kon of 41500 M⁻¹ s⁻¹. In addition, in assay [2], the Kd was determined as 0.91 nM, the koff was 1.6e-05 s⁻¹ and the kon is 17600 M⁻¹ s⁻¹.

B6: toripalimab Fab L.I29Y (Fab, V domains shown)
VH: QGQLVQSGAEVKKPGASVKVSCKASGYTFTDYEMHWVRQAPIHGLEWIGVIESETGGTAYNQKFKGRVTITADKSTSTAYMELSSLRSEDTAVYYCAREGITTVATTYYWYFDVWGQGTTVTVSS
VL: DVVMTQSPLSLPVTLGQPASISCRSSQSYVHSNGNTYLEWYLQKPGQSPQLLIYKVSNRFSGVPDRFSGSGSGTDFTLKISRVEAEDVGVYYCFQGSHVPLTFGQGTKLEIK
notes: as for B1
Take B6: in assay [1], binding was characterised by a dissociation constant (Kd) of 80.6 nM, the koff was found to be 0.00575 s⁻¹ and the kon stood at 71400 M⁻¹ s⁻¹. In assay [2], this molecule came in with a Kd of 30.4 nM, a koff of 0.000378 s⁻¹ and a kon of 12400 M⁻¹ s⁻¹.

B7: toripalimab Fab L.S26A (Fab, V domains shown)
VH: QGQLVQSGAEVKKPGASVKVSCKASGYTFTDYEMHWVRQAPIHGLEWIGVIESETGGTAYNQKFKGRVTITADKSTSTAYMELSSLRSEDTAVYYCAREGITTVATTYYWYFDVWGQGTTVTVSS
VL: DVVMTQSPLSLPVTLGQPASISCRSAQSIVHSNGNTYLEWYLQKPGQSPQLLIYKVSNRFSGVPDRFSGSGSGTDFTLKISRVEAEDVGVYYCFQGSHVPLTFGQGTKLEIK
notes: as for B1
In assay [1], B7 returned a Kd of 75 nM, a koff of 0.00379 s⁻¹ and a kon of 50500 M⁻¹ s⁻¹. In assay [2], the Kd stood at 0.802 nM, the koff is 1.95e-05 s⁻¹ and the kon is 24300 M⁻¹ s⁻¹.

B8: toripalimab Fab L.S28A (Fab, V domains shown)
VH: QGQLVQSGAEVKKPGASVKVSCKASGYTFTDYEMHWVRQAPIHGLEWIGVIESETGGTAYNQKFKGRVTITADKSTSTAYMELSSLRSEDTAVYYCAREGITTVATTYYWYFDVWGQGTTVTVSS
VL: DVVMTQSPLSLPVTLGQPASISCRSSQAIVHSNGNTYLEWYLQKPGQSPQLLIYKVSNRFSGVPDRFSGSGSGTDFTLKISRVEAEDVGVYYCFQGSHVPLTFGQGTKLEIK
notes: as for B1
In assay [1], B8 showed a Kd of 96.3 nM, a koff of 0.00303 s⁻¹ and a kon of 31400 M⁻¹ s⁻¹. Besides, in assay [2], the Kd is under 0.632 nM, the koff is under 1e-05 s⁻¹ and the kon was found to be 15800 M⁻¹ s⁻¹.

B9: toripalimab Fab L.Q27A (Fab, V domains shown)
VH: QGQLVQSGAEVKKPGASVKVSCKASGYTFTDYEMHWVRQAPIHGLEWIGVIESETGGTAYNQKFKGRVTITADKSTSTAYMELSSLRSEDTAVYYCAREGITTVATTYYWYFDVWGQGTTVTVSS
VL: DVVMTQSPLSLPVTLGQPASISCRSSASIVHSNGNTYLEWYLQKPGQSPQLLIYKVSNRFSGVPDRFSGSGSGTDFTLKISRVEAEDVGVYYCFQGSHVPLTFGQGTKLEIK
notes: as for B1
In assay [1], B9 yielded a Kd of 219 nM, an off-rate constant (koff) of 0.00876 s⁻¹ and a kon of 40100 M⁻¹ s⁻¹. In assay [2], this molecule registered a Kd of under 0.831 nM, a koff of under 1e-05 s⁻¹ and a kon of 12000 M⁻¹ s⁻¹.

B10: toripalimab Fab L.S26Y (Fab, V domains shown)
VH: QGQLVQSGAEVKKPGASVKVSCKASGYTFTDYEMHWVRQAPIHGLEWIGVIESETGGTAYNQKFKGRVTITADKSTSTAYMELSSLRSEDTAVYYCAREGITTVATTYYWYFDVWGQGTTVTVSS
VL: DVVMTQSPLSLPVTLGQPASISCRSYQSIVHSNGNTYLEWYLQKPGQSPQLLIYKVSNRFSGVPDRFSGSGSGTDFTLKISRVEAEDVGVYYCFQGSHVPLTFGQGTKLEIK
notes: as for B1
In assay [1], B10 gave a Kd of 152 nM, a koff of 0.00675 s⁻¹ and an association rate constant (kon) of 44500 M⁻¹ s⁻¹. Besides, in assay [2], the Kd is under 0.573 nM, the koff was under 1e-05 s⁻¹ and the kon turned out to be 17500 M⁻¹ s⁻¹.

B11: toripalimab Fab L.S25Y (Fab, V domains shown)
VH: QGQLVQSGAEVKKPGASVKVSCKASGYTFTDYEMHWVRQAPIHGLEWIGVIESETGGTAYNQKFKGRVTITADKSTSTAYMELSSLRSEDTAVYYCAREGITTVATTYYWYFDVWGQGTTVTVSS
VL: DVVMTQSPLSLPVTLGQPASISCRYSQSIVHSNGNTYLEWYLQKPGQSPQLLIYKVSNRFSGVPDRFSGSGSGTDFTLKISRVEAEDVGVYYCFQGSHVPLTFGQGTKLEIK
notes: as for B1
Regarding B11, in assay [1], the Kd worked out at 125 nM, the koff amounted to 0.00412 s⁻¹ and the kon was determined as 32900 M⁻¹ s⁻¹. Moreover, in assay [2], binding was characterised by a dissociation constant (Kd) of 1.93 nM, the koff came out at 1.18e-05 s⁻¹ and the kon worked out at 6090 M⁻¹ s⁻¹.

B12: toripalimab Fab L.V30A (Fab, V domains shown)
VH: QGQLVQSGAEVKKPGASVKVSCKASGYTFTDYEMHWVRQAPIHGLEWIGVIESETGGTAYNQKFKGRVTITADKSTSTAYMELSSLRSEDTAVYYCAREGITTVATTYYWYFDVWGQGTTVTVSS
VL: DVVMTQSPLSLPVTLGQPASISCRSSQSIAHSNGNTYLEWYLQKPGQSPQLLIYKVSNRFSGVPDRFSGSGSGTDFTLKISRVEAEDVGVYYCFQGSHVPLTFGQGTKLEIK
notes: as for B1
As to B12, in assay [1], the Kd is 255 nM, the koff was 0.00954 s⁻¹ and the kon was found to be 37400 M⁻¹ s⁻¹. In assay [2], this molecule had a Kd of 2.21 nM, a koff of 6.23e-05 s⁻¹ and a kon of 28200 M⁻¹ s⁻¹.

B13: toripalimab Fab L.Q27Y (Fab, V domains shown)
VH: QGQLVQSGAEVKKPGASVKVSCKASGYTFTDYEMHWVRQAPIHGLEWIGVIESETGGTAYNQKFKGRVTITADKSTSTAYMELSSLRSEDTAVYYCAREGITTVATTYYWYFDVWGQGTTVTVSS
VL: DVVMTQSPLSLPVTLGQPASISCRSSYSIVHSNGNTYLEWYLQKPGQSPQLLIYKVSNRFSGVPDRFSGSGSGTDFTLKISRVEAEDVGVYYCFQGSHVPLTFGQGTKLEIK
notes: as for B1
Consider B13, for which, in assay [1], the Kd turned out to be 216 nM, the koff amounted to 0.0122 s⁻¹ and the kon stood at 56500 M⁻¹ s⁻¹. In assay [2], this molecule yielded a Kd of under 0.342 nM, a koff of under 1e-05 s⁻¹ and a kon of 29200 M⁻¹ s⁻¹.
